The subject of assay [1] is I-A^g7. The following applies: ref Yu et al., 2000; Levisetti et al., 2007; cited from earlier work.
Assay [2] relates to I-A^g7. Particulars: ref Yu et al., 2000; Levisetti et al., 2007; cited from earlier work. The source holds these as a separate data set.
The next assay concerns B16A-dKO mice. The assay is described as follows: Immunization and IL-2 ELISPOT in B16A-dKO mice. The following applies: 10 nmol in CFA, restimulation at 10 µM, Fig. 4 c. The format is in vivo, mouse.
Assay [3] addresses soluble I-A^g7 (mouse). Nature of the assay: radioligand binding.
The target in assay [4] is soluble I-A^g7 (mouse). The assay is described as follows: SDS stability of the complex.

The source of these data is paper PMC3256971 (The Journal of Experimental Medicine, 2011).

Regarding SHLVEALYLVCGERG [B:9–23], the “binding affinity to I-A^g7” value with I-A^g7 [1] is on record as “very low affinity”. Besides, the “rate of dissociation from I-A^g7” value with I-A^g7 [2] is on record as “fast rate of dissociation”. The “IL-2 ELISPOT response to register 1 after immunization” value in the assay on B16A-dKO mice was “detected a response to register 1 similar to that found in NOD mice”.

As to “nested B:12–21 peptide with flanking residues”, the half-inhibitory concentration (IC50) in the assay with soluble I-A^g7 (mouse) [3] is 500 nM.

Take “radioactive peptide bearing the nested register 1:12–20 sequence (added N-terminal tyrosine, B16 tyrosine to phenylalanine)”: the percent of the bound peptide lost in the first 20 min in the assay with soluble I-A^g7 (mouse) [3] was over 50%.

Molecule “radioactive peptide bearing the nested register 2:13–21 sequence (added N-terminal tyrosine, B16 tyrosine to phenylalanine)” yielded a percent SDS stable in the assay with soluble I-A^g7 (mouse) [4] of 70%.

In the case of TEGALYLVCGERGGS [nested register 3:14–22 peptide (insulin B:14–22 with flanking residues)], the IC50 with soluble I-A^g7 (mouse) [3] turned out to be 5500 nM.

With TEGEALYLVCGEGGS [nested register 2:13–21 peptide (insulin B:13–21 with flanking residues)], in the assay with soluble I-A^g7 (mouse) [3], the half-inhibitory concentration (IC50) was determined as 700 nM.

For TEGVEALYLVCGGGS [nested register 1:12–20 peptide (insulin B:12–20 with flanking residues)], the IC50 with soluble I-A^g7 (mouse) [3] is 1400 nM.

Broadly, the IC50 is the concentration that gives 50% inhibition. Read a high IC50 as weaker potency.
